Test system: small intestinal immune cells
Assay: Droplet-based scRNA-seq of small intestinal immune cells (LP and PP), OVA vs PBS, clustering and differential expression
Type: in vivo, mouse
Settings: cluster ID 6, PP, OVA vs PBS
Source text: To comprehensively characterize small intestinal immune cells, Applicants generated scRNA-Seq profiles for 58,067 immune cells collected from lamina propria (LP) and Peyer's patch (PP) regions at steady state and after induction of a type 2 inflammatory reaction to ovalbumin (OVA) (Brandt et al., 2003) (FIGS. 1A and 8A). To ensure sufficient representation of rare cells, Applicants combined a normalization strategy—removing by flow sorting either a portion of IgD+ naïve B cells, which are the most abundant cell type in PPs, or all CD19+ and CD3+ T cells (FIG. 8B, Methods)—with profiling of a sufficiently large number of cells number (P>0.99 to recover at least 15 cells from each cluster, Methods) by massively parallel scRNA-seq (Haber et al., 2017) (Methods). Applicants obtained 36,797 and 21,270 high quality cells passing initial filtering (Methods) from PP and LP regions, respectively.
Overall, Applicants annotated 27 cell subsets across the two compartments, spanning T cells, B cells, ILCs, dendritic cells (DCs), myeloid cells and stromal cells, in frequencies ranging from 0.07% to 14%. Briefly, Applicants first partitioned the cells from the PP regions by unsupervised clustering (Methods) into 46 clusters, retained the 97% of cells that were robustly assigned cell identities in each cluster (Methods), assigned the cells from the LP regions to the 46 clusters using a classifier (Methods), and visualized the data with scvis (Ding et al., 2018), a deep generative model-based method (FIGS. 1B and 8C, Methods). Next, Applicants identified genes that were differentially expressed between the cells in each cluster and the remaining cells (Table 1, Methods), as well as between pairs of clusters (Table 2), to elucidate identities of similar cell types/states. Applicants excluded from downstream analysis clusters mostly consisting of contaminants from epithelium, likely doublets, or cells with a small number of Unique Molecular Identifiers (UMIs) (FIGS. 1C and 8D), or lacking distinct markers (Methods). Altogether, Applicants retained 27 clusters spanning 85% of the cells and each associated with distinct marker genes (FIG. 8E, Methods).
To induce allergic reaction to OVA, 6 to 7 weeks old mice were sensitized twice, two weeks apart, with 50 μg of OVA plus 1 mg of aluminum potassium sulfate adjuvant via intraperitoneal injection. Two weeks later, mice were orally administered with 50 mg of OVA on every other day for a total of five times. 1 μg of α-CGRP peptide was administered simultaneously when indicated. Mice were deprived of food for 3-4 hours in cages with wood chip bedding for limiting antigen degradation in the stomach before each intragastric challenge.
Isolation of cells from Peyer's patches (PPs). Peyer's patches (PPs) were carefully dissected from the small intestine under a stereo microscope using a fine scissor, pierced once with a fine forcep. Tissues were digested in freshly made digestion buffer (RPMI-1640 containing 100 μg/ml Liberase™ and 50 μg/ml DNase I at 37° C. on a roto-mixer. After 15 min, tissues were very gently mixed using a 1 ml pipette. The supernatant was collected and added to ice-cold MACS buffer (pH 7.4; PBS plus 2% FCS and 2 mM EDTA). Pre-warmed (37° C.) fresh digestion buffer was added to the remaining tissues. After rotation at 37° C. for 15 min, the mixture was vigorously mixed using a 1 ml pipette for 1 min. Supernatants from the two steps were combined and passed through 70 μm filters and stained for FACS (below).
Isolation of cells from the lamina propria (LP). The small intestines were opened longitudinally and washed in ice-cold PBS. For scRNA-seq, roughly 0.5 cm of fragments from each of the distal, middle and proximal regions without visible PPs were collected. Epithelial cells were dissociated by tissue rotation in pre-warmed (37° C.) PBS containing 10 mM EDTA at 37° C. for 15 min, followed by additional incubation on ice for 15 min. Tissues were then shaken vigorously. […]

B1: OVA (protein, UniProt P01012 2-386, looked up)
Ovalbumin: GSIGAASMEFCFDVFKELKVHHANENIFYCPIAIMSALAMVYLGAKDSTRTQINKVVRFDKLPGFGDSIEAQCGTSVNVHSSLRDILNQITKPNDVYSFSLASRLYAEERYPILPEYLQCVKELYRGGLEPINFQTAADQARELINSWVESQTNGIIRNVLQPSSVDSQTAMVLVNAIVFKGLWEKAFKDEDTQAMPFRVTEQESKPVQMMYQIGLFRVASMASEKMKILELPFASGTMSMLVLLPDEVSGLEQLESIINFEKLTEWTSSNVMEERKIKVYLPRMKMEEKYNLTSVLMAMGITDVFSSSANLSGISSAESLKISQAVHAAHAEINEAGREVVGSAEAGVDAASVSEEFRADHPFLFCIKHIATNAVLFFGRCVSP
  Dnajc7: LN (average fold change): 0.197
  Dusp1: LN (average fold change): −0.366
  Dusp5: LN (average fold change): −0.167
  Dusp18: LN (average fold change): −0.789
  Egr1: LN (average fold change): −0.987
  Emp3: LN (average fold change): 0.172
  Erdr1: LN (average fold change): −0.520
  Fabp2: LN (average fold change): −1.495
  Fam46c: LN (average fold change): −0.440
  Filip1l: LN (average fold change): −0.295
  Fkbp5: LN (average fold change): 0.573
  Fosb: LN (average fold change): −0.556
  Fosl2: LN (average fold change): −0.387
  Foxp1: LN (average fold change): −0.169
  Fyn: LN (average fold change): −0.230
  Gapdh: LN (average fold change): 0.206
  Gapt: LN (average fold change): −0.204
  Gnb1: LN (average fold change): −0.247
  Grasp: LN (average fold change): −0.617
  Gtf2i: LN (average fold change): 0.283
  H2-Aa: LN (average fold change): 0.220
  H2-Ab1: LN (average fold change): 0.238
  H2-Eb1: LN (average fold change): 0.228
  H2afj: LN (average fold change): 0.166
  Hes6: LN (average fold change): 0.290
  Hist1h1c: LN (average fold change): 0.792
  Hist2h4: LN (average fold change): 1.036
  Ier2: LN (average fold change): −0.265
  Ier5: LN (average fold change): 0.332
  Ifi30: LN (average fold change): 0.256
  Ifrd1: LN (average fold change): −0.459
  Igha: LN (average fold change): 0.596
  Igkc: LN (average fold change): 0.194
  Itpkb: LN (average fold change): −0.230
  Jun: LN (average fold change): 0.499
  Junb: LN (average fold change): −0.174
  Jund: LN (average fold change): −0.422
  Kdm6b: LN (average fold change): −0.488
  Klf4: LN (average fold change): −0.763
  Klk1: LN (average fold change): 0.243
  Kmt2e: LN (average fold change): −0.156
  Lag3: LN (average fold change): 0.315
  Lgals1: LN (average fold change): 0.174
  Lmnb1: LN (average fold change): −0.415
  Ly6c1: LN (average fold change): −0.173
  Lyz1: LN (average fold change): −1.858
  Mcl1: LN (average fold change): −0.199
  Mcpt1: LN (average fold change): 0.479
  Mcpt2: LN (average fold change): 0.749
  Mir142hg: LN (average fold change): −0.649
  Mpeg1: LN (average fold change): 0.185
  Napsa: LN (average fold change): 0.245
  Neat1: LN (average fold change): 0.364
  Nfkbia: LN (average fold change): −0.191
  Nfkbiz: LN (average fold change): −0.288
  Npc2: LN (average fold change): 0.166
  Nr4a1: LN (average fold change): −0.422
  Nr4a3: LN (average fold change): −0.556
  Odc1: LN (average fold change): −0.325
  Os9: LN (average fold change): 0.265
  Pik3ip1: LN (average fold change): 0.445
  Pim1: LN (average fold change): −0.188
  Plek: LN (average fold change): −0.205
  Plekho2: LN (average fold change): −0.406
  Pltp: LN (average fold change): 0.260
  Pnrc1: LN (average fold change): −0.212
  Ppia: LN (average fold change): 0.186
  Ppp1r16b: LN (average fold change): −0.419
  Ppp2ca: LN (average fold change): −0.356
  Psap: LN (average fold change): 0.202
  Ptp4a1: LN (average fold change): −0.201
  Ptpre: LN (average fold change): −0.452
  Rel: LN (average fold change): −0.305
  Rgs1: LN (average fold change): 0.548

From US20220143148A1, “COMPOSITIONS AND METHODS FOR MODULATING CGRP SIGNALING TO REGULATE INTESTINAL INNATE LYMPHOID CELLS” (The Broad Institute, Inc., priority 2019, published 2022)
